Test results published in publication PMC8342441.
Each block holds one substance with its values, some of them ahead of it.

Molecular target: β-arrestin 2-Rluc (UniProt P32121)
Assay: BRET (β-arrestin 2 recruitment)
Settings: point at the highest AngII dose, read off a plot
[1] = HEK293 cells, Log[AII] = -5 M, parent: est. 0.37
[2] = Log[AngII] = -4 M, parent: est. 0.086
[3] = HEK293 cells, left plot, Log[AII] = -5 M, parent: est. 0.36
[4] = HEK293 cells, right plot, Log[AII] = -5 M, parent: est. 0.35

response [2]: 0.065 ΔBRET
Substance: YFP-tagged WT angiotensin II type 1 receptor (AT1 receptor) (from UniProt P30556) F1.48A; L1.52A; I1.57A

response [3]: 0.05 ΔBRET
Substance: YFP-tagged WT angiotensin II type 1 receptor (AT1 receptor) (from UniProt P30556) G1.49L

response [1]: 0.12 ΔBRET
Substance: YFP-tagged WT angiotensin II type 1 receptor (AT1 receptor) (from UniProt P30556) N3.35A

response [4]: 0.25 ΔBRET
Substance: YFP-tagged WT angiotensin II type 1 receptor (AT1 receptor) (from UniProt P30556) N7.49A

response [4]: 0.055 ΔBRET
Substance: YFP-tagged WT angiotensin II type 1 receptor (AT1 receptor) (from UniProt P30556) Y7.53A

response [1]: 0.41 ΔBRET
Substance: YFP-tagged WT angiotensin II type 1 receptor (AT1 receptor) (from UniProt P30556) Y7.53I

The next lines start with the substance.

Substance: YFP-tagged WT angiotensin II type 1 receptor (AT1 receptor) (from UniProt P30556) D2.50N
response [1]: 0.36 ΔBRET

Substance: YFP-tagged WT angiotensin II type 1 receptor (AT1 receptor) (from UniProt P30556) F7.55W
response [3]: 0.09 ΔBRET

Substance: YFP-tagged WT angiotensin II type 1 receptor (AT1 receptor) (from UniProt P30556) F8.54W
response [3]: 0.26 ΔBRET

Substance: YFP-tagged WT angiotensin II type 1 receptor (AT1 receptor) (from UniProt P30556) K8.49A; F8.50A; K8.51A; Y8.53A; F8.54A
response [2]: 0.006 ΔBRET

Substance: YFP-tagged WT angiotensin II type 1 receptor (AT1 receptor) (from UniProt P30556) N7.49A; P7.50A; F7.55A
response [2]: 0.006 ΔBRET
